This note sets out measurements from patent US20190351049A1 (Regeneron, published 2019).

The target in experiment [1] is MERS-CoV spike protein (EMC/2012), wt (MERS-CoV (isolate EMC/2012), UniProt K9N5Q8 18-1353). In words: cell-based or functional assay.
The next experiment concerns the target MERS-RBD-mFc (MERS-CoV (isolate EMC/2012), UniProt K9N5Q8 367-606). Description: Octet BLI, MERS.mFc captured on the sensor, then mAb-1 applied. A general note: Biolayer interferometry detects binding as a change in optical thickness at a sensor tip.

B1: H1H15260P2 (antibody, V domains shown)
VH: QVQLQESGPGLVKPSETLSLTCSVSGGSITSSYWSWIRQPPGRGLEWIGYVYYYGTTKYNPSLKSRVTTSMDTSKNQFSLKLNSVTAADTAVYYCARLELLFDYWGQGTLVTVSS
VL: not shown
As to B1, in experiment [1], the “IC50 against MERSpp” value was 0.0643 nM and the “IC50 against live virus (EMC2012)” value worked out at 6.7 nM. The “mAb-1 Binding (nm)” value with MERS-RBD-mFc was 0.39 nm.

B2: H1H15249P2 (antibody, V domains shown)
VH: QLQLQESGPGLVKPSETLSLTCTVSGGSISNNNYYWGWIRQPPGKGLDWIGSIYYSGNTYYNPSLKSRVTISVDTSKNQFSLKMSSVTATDTALYYCARQGADHNWVDPWGQGTLVTVSS
VL: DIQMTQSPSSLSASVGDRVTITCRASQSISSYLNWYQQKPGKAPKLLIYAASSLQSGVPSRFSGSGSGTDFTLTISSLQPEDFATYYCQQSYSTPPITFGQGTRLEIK
Regarding B2, in experiment [1], the “IC50 against MERSpp” value was found to be 0.227 nM and the “IC50 against live virus (EMC2012)” value stood at 12 nM. Further, the “mAb-1 Binding (nm)” value with MERS-RBD-mFc is 0.4 nm.
